From article PMC11084668, “EGCG Disrupts the LIN28B/Let-7 Interaction and Reduces Neuroblastoma Aggressiveness”

T1: rLIN28B (LIN28B-Myc-His) (Homo sapiens, UniProt Q6ZN17 1-250)
T1 sequence: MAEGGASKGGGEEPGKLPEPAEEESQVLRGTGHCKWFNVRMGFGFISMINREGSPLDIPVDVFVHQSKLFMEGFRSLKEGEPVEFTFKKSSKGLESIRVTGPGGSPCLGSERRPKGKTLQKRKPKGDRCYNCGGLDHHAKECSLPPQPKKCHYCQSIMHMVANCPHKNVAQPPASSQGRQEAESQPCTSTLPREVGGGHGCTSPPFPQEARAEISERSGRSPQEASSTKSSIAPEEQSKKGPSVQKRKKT


Columns and labels:
rLIN28B (LIN28B-Myc-His) [1] = molecular target: T1, rLIN28B (LIN28B-Myc-His); test: AlphaScreen saturation binding; apparent Kd; n = 3, SD; REMSA: 20 mM HEPES pH 7.5, 50 mM KCl, 0.5 ug BSA, 0.25% glycerol, room temperature, 1 h; AlphaScreen: dialysis buffer (Table S3, partly shown: 0.02% Tween, 0.1% BSA, 15% glycerol, pH 7.5?), room temperature, 90 min; conditions: protein: recombinant; tags: C-terminal Myc-His; label: 5'-biotin
rLIN28B (LIN28B-Myc-His) [2] = molecular target: T1, rLIN28B (LIN28B-Myc-His); test: AlphaScreen; REMSA: 20 mM HEPES pH 7.5, 50 mM KCl, 0.5 ug BSA, 0.25% glycerol, room temperature, 1 h; AlphaScreen: dialysis buffer (Table S3, partly shown: 0.02% Tween, 0.1% BSA, 15% glycerol, pH 7.5?), room temperature, 90 min; conditions: protein: recombinant; tags: C-terminal Myc-His; label: 5'-biotin

Binder | Kd (rLIN28B (LIN28B-Myc-His) [1]) [nM] | binding result (rLIN28B (LIN28B-Myc-His) [2])
GCUAUGAUACCACCCGGUACAGGAGC (structured_RNA) [Bi-pre-let-7g] | 34.7 ± 3.6 | –
GGCAUGAUACCACCCGGUACGGGC (structured_RNA) [Bi-pre-let-7g-mut] | – | no binding
